Experiments:
[1] = biological target: the molecule itself; test: HPLC, traces normalized to peak intensity; main peak is the self-assembled multimer
IL-15 polypeptide = biological target: T1, IL-15 polypeptide (Homo sapiens (Human), UniProt P40933 49-162); test: production of the SADA-Cytokine complex; no direct binding assay described
T1 construct: also called sIL15; soluble IL15

[2] = biological target: the molecule itself; test: fluorescence correlation spectroscopy; half-life of multimer dissociation, one-phase decay fit
Text: (§1) FIG. 4 depicts a summary of fluorescence correlation spectroscopy (FCS) experiment regarding the SADA domains used here. […] Measurements were taken with a Zeiss LSM 880 confocal microscope. Normalized autocorrelations functions G(T) were then plotted to determine the diffusion times for each SADA-BiDE over time. All samples were compared against a monomeric anti-GD2 BiDE.

[3] = HPLC after single-step affinity purification; main peak at about 16 min is the self-assembled tetramer (self-association through the p73 SADA domain)
[4] = biological target: the molecule itself; test: fluorescence correlation spectroscopy; dissociation of the self-assembled multimer after dilution from 500 nM to 0.5 nM, Cy3-175Lu-Bn-DOTA label, one-phase decay fit
Text: as §1

[5] = HPLC after single-step affinity purification; main peak at about 16 min is the self-assembled tetramer (self-association through the p63 SADA domain)
[6] = HPLC after single-step affinity purification; main peak at about 16 min is the self-assembled tetramer (self-association through the p53 SADA domain)

T1 sequence (P40933 49-162 limits assumed): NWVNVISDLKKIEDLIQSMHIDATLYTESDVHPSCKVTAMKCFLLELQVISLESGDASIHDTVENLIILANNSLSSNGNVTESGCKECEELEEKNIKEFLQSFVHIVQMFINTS

binding result (IL-15 polypeptide)	Binder	binding result [1]	half-life [2]	% tetramer (HPLC purity, main peak) [3]	koff [4]	% tetramer (HPLC purity, main peak) [5]	% tetramer (HPLC purity, main peak) [6]
binds	P53-Cytokine polypeptide (IL15Rα, huP53-tet, IgG3 spacer) (other, The full complex is described as 8 pairs of IL15Rα/IL15 (about 200 kDa); also called SADA-Cytokine) ITCPPPMSVEHADIWVKSYSLYSRERYICNSGFKRKAGTSSLTECVLNKATNVAHWTTPSLKCIRTPLGDTTHTSGKPLDGEYFTLQIRGRERFEMFRELNEALELKDAQAGKEPGGSGGAPHHHHHH	binds	–	–	–	–	–
binds	P73-Cytokine polypeptide (IL15Rα, huP73-tet, IgG3 spacer) (other, The full complex is described as 8 pairs of IL15Rα/IL15; also called SADA-Cytokine) ITCPPPMSVEHADIWVKSYSLYSRERYICNSGFKRKAGTSSLTECVLNKATNVAHWTTPSLKCIRTPLGDTTHTSGRHGDEDTYYLQVRGRENFEILMKLKESLELMELVPQPLVDSYRQQQQLLQRPGGSGGAPHHHHHH	binds	–	–	–	–	–
binds	P63-Cytokine polypeptide (IL15Rα, huP63-tet, IgG3 spacer) (other, The full complex is described as 8 pairs of IL15Rα/IL15; also called SADA-Cytokine) ITCPPPMSVEHADIWVKSYSLYSRERYICNSGFKRKAGTSSLTECVLNKATNVAHWTTPSLKCIRTPLGDTTHTSGRSPDDELLYLPVRGRETYEMLLKIKESLELMQYLPQHTIETYRQQQQQQHQHLLQKQGGSGGAPHHHHHH	binds	–	–	–	–	–

Second part, the binder before the results:

Binder	binding result (IL-15 polypeptide)	binding result [1]	half-life [2]	% tetramer (HPLC purity, main peak) [3]	koff [4]	% tetramer (HPLC purity, main peak) [5]	% tetramer (HPLC purity, main peak) [6]
P73-BiDE (hu3F8-scFv, huC825-scFv, huP73-tet, GS linker, IgG3 spacer) (bispecific antibody, Self-assembles into a homo-tetramer of about 200 kDa; also called p73 SADA-BiDE) EIVMTQTPATLSVSAGERVTITCKASQSVSNDVTWYQQKPGQAPRLLIYSASNRYSGVPARFSGSGYGTEFTFTISSVQSEDFAVYFCQQDYSSFGCGTKLEIKRGGGGSGGGGSGGGGSGGGGSGGGGSGGGGSQVQLVESGPGVVQPGRSLRISCAVSGFSVTNYGVHWVRQPPGKCLEWLGVIWAGGITNYNSAFMSRLTISKDNSKNTVYLQMNSLRAEDTAMYYCASRGGHYGYALDYWGQGTLVTVSSGGGGSGGGGSGGGGSGGGGSHVQLVESGGGLVQPGGSLRLSCAASGFSLTDYGVHWVRQAPGKGLEWLGVIWSGGGTAYNTALISRFTISRDNSKNTLYLQMNSLRAEDTAVYYCARRGSYPYNYFDAWGCGTLVTVSSGGGGSGGGGSGGGGSQAVVTQEPSLTVSPGGTVTLTCGSSTGAVTASNYANWVQQKPGQCPRGLIGGHNNRPPGVPARFSGSLLGGKAALTLLGAQPEDEAEYYCALWYSDHWVIGGGTKLTVLGTPLGDTTHTSGRHGDEDTYYLQVRGRENFEILMKLKESLELMELVPQPLVDSYRQQQQLLQRPGGSGGAPHHHHHH	–	–	2.03 h	90.2%	9.5e-05 s⁻¹	–	–
P63-BiDE (hu3F8-scFv, huC825-scFv, huP63-tet, GS linker, IgG3 spacer) (bispecific antibody, Self-assembles into a homo-tetramer of about 200 kDa; also called p63 SADA-BiDE) EIVMTQTPATLSVSAGERVTITCKASQSVSNDVTWYQQKPGQAPRLLIYSASNRYSGVPARFSGSGYGTEFTFTISSVQSEDFAVYFCQQDYSSFGCGTKLEIKRGGGGSGGGGSGGGGSGGGGSGGGGSGGGGSQVQLVESGPGVVQPGRSLRISCAVSGFSVTNYGVHWVRQPPGKCLEWLGVIWAGGITNYNSAFMSRLTISKDNSKNTVYLQMNSLRAEDTAMYYCASRGGHYGYALDYWGQGTLVTVSSGGGGSGGGGSGGGGSGGGGSHVQLVESGGGLVQPGGSLRLSCAASGFSLTDYGVHWVRQAPGKGLEWLGVIWSGGGTAYNTALISRFTISRDNSKNTLYLQMNSLRAEDTAVYYCARRGSYPYNYFDAWGCGTLVTVSSGGGGSGGGGSGGGGSQAVVTQEPSLTVSPGGTVTLTCGSSTGAVTASNYANWVQQKPGQCPRGLIGGHNNRPPGVPARFSGSLLGGKAALTLLGAQPEDEAEYYCALWYSDHWVIGGGTKLTVLGTPLGDTTHTSGRSPDDELLYLPVRGRETYEMLLKIKESLELMQYLPQHTIETYRQQQQQQHQHLLQKQGGSGGAPHHHHHH	–	–	3.08 h	–	6.3e-05 s⁻¹	89.2%	–
P53-BiDE (hu3F8-scFv, huC825-scFv, huP53-tet, GS linker, IgG3 spacer) (bispecific antibody, Self-assembles into a homo-tetramer of about 200 kDa; Its targets GD2 (ganglioside) and Bn-DOTA (hapten) are not proteins; only the self-association is recorded; also called p53 SADA-BiDE) EIVMTQTPATLSVSAGERVTITCKASQSVSNDVTWYQQKPGQAPRLLIYSASNRYSGVPARFSGSGYGTEFTFTISSVQSEDFAVYFCQQDYSSFGCGTKLEIKRGGGGSGGGGSGGGGSGGGGSGGGGSGGGGSQVQLVESGPGVVQPGRSLRISCAVSGFSVTNYGVHWVRQPPGKCLEWLGVIWAGGITNYNSAFMSRLTISKDNSKNTVYLQMNSLRAEDTAMYYCASRGGHYGYALDYWGQGTLVTVSSGGGGSGGGGSGGGGSGGGGSHVQLVESGGGLVQPGGSLRLSCAASGFSLTDYGVHWVRQAPGKGLEWLGVIWSGGGTAYNTALISRFTISRDNSKNTLYLQMNSLRAEDTAVYYCARRGSYPYNYFDAWGCGTLVTVSSGGGGSGGGGSGGGGSQAVVTQEPSLTVSPGGTVTLTCGSSTGAVTASNYANWVQQKPGQCPRGLIGGHNNRPPGVPARFSGSLLGGKAALTLLGAQPEDEAEYYCALWYSDHWVIGGGTKLTVLGTPLGDTTHTSGKPLDGEYFTLQIRGRERFEMFRELNEALELKDAQAGKEPGGSGGAPHHHHHH	–	–	1.73 h	–	0.000112 s⁻¹	–	94.4%

From US20250295794A1 (Memorial Sloan Kettering, published 2025)
